The source of these data is US20210361653.

For this series, the target named is His-BRD4-N (amino acids 1-500), O60885.

B1: GST-SPOP (protein)
chain: MSRVPSPPPPAEMSSGPVAESWCYTQIKVVKFSYMWTINNFSFCREEMGEVIKSSTFSSGANDKLKWCLRVNPKGLDEESKDYLSLYLLLVSCPKSEVRAKFKFSILNAKGEETKAMESQRAYRFVQGKDWGFKKFIRRDFLLDEANGLLPDDKLTLFCEVSVVQDSVNISGQNTMNMVKVPECRLADELGGLWENSRFTDCCLCVAGQEFQAHKAILAARSPVFSAMFEHEMEESKKNRVEINDVEPEVFKEMMCFIYTGKAPNLDKMADDLLAAADKYALERLKVMCEDALCSNLSVENAAEILILADLHSADQLKTQAVDFINYHASDVLETSGWKSMVVSHPHLVAEAYRSLASAQCPFLGPPRKRLKQS
As to B1, the “in vitro ubiquitination assay” value is reported as “The SPOP-CULLIN3-RBX1 complex was shown to catalyzed BRD4 ubiquitination in vitro”.
